# Results: the DeepSol protein solubility set
# Assay: soluble on expression in E. coli; label from the status in PepcDB or PDB records
row,Sequence,soluble on expression in E. coli
1,MSKIASEVVATTLNDWYIAIKKQKVDESIKYYSEIKKLFDEMEEDQEVLAYYSLLEERHKMLLHSSRGEPLQKHTYFTEDNQNFITKTNDKLEYNFYLFEAMYEAYNKNYDRAINLYGLAEKKLAEIPDEIEAAEFYSKVSYLYTLVKQSIVAQHYIKNAISIYKRHPDYKCKLATSTMIAAANYADMKRFEEAEQYYLEAIDIAKETKDEFLKAQLFHNLSIVYSDWNKPDKCIESLEKAIGNESWLHSIYYINSLFMMIKELFKIDEKMKAINFYNKAQERLILMENKVYEAKISILYNLYCGELKNNFNNCISNIEFLKQQNELESVDELSYIAAKRFESIGAFEEATSFFNAKIWAE,soluble
2,MGSDKIHHHHHHMEPIVRLENVTKNYRGVPAVKNVSFDLRKGEIHALLGENGAGKSTLTKIIAGVVDATSGKMFHKGREIAYASPHAALEAGIAMVFQETSLVPSMTVAQNLYLGTEKFLNRLRGTYIAAQQFLQSLNFPVDPNAMVATLGAAKRQMVEIARAVHHNAEIIIFDEPTATLTPEEKRHFFALIRRLKASGVSIVFISHALEEALAIADRITILRDGELVITDDTSAFDRDKIVAAMVGRTLSGQIYRQRDEARLRKAGKKVLSVQDISMSNVVRNNSFSIFEGQITGVFGLIGSGRTETFKIVSGIYKRDFLRGGAIELDDRPVRYLVPSEAVADGIVYVTEDRKSEGIFETMGIAENLFGGLLAAGREKAWVINQQEMRQLSAQWTKTLNIKAINDNARVVELSGGNQQKVVIGKGLVQQPRIVIFDEPTRGVDVGAIAEIHQIINRLADEGLAVVVISSYLPEIMNLSDRILVCRQGRIVEEYSPAEATEEKIMYAAVH,not soluble
3,MDRTIYDNYVKILRKELVPALGCTEPIALAYASAKAREVLGEFPEHMTVWCSGNIIKNVKGVKVPNSGGMKGVEAAAVLGLAGGDPSQALEVLEAVTQTDIKRTKELLRESFCDCCLKEGVANLYIEVQVVNGENEATVIIEQEHTNITRIEKNGKIVYAHKKEVSGEEIEVDKSLLNLADILVFAQEVDLNEVRDVLARQIRYNSRIAKEGLEHEWGAQVGRVIAEEFGTTVQWKAVASAAAGSDARMSGCSLPVIINSGSGNQGMTCSLPVIEYGKELKKSEEEIYRALCVSNLVALNQKRYIGSLSAYCGAVCAAAGAGAGITYLCGGNLEQIQNTVVNTIADAGGIVCDGAKPSCAAKIATSLQAAILSHKMAMRGLVFGSGEGLVMDCPEDTIKAVGYVGRAGMKQTDVEILNLMIGKTKIEDIEK,not soluble
4,GKNYVRSELKRLNHLCRDFRRDEVHAMDKLLFDQLCQIQLLLGTQAEVHIVSGYRSPATNKQLRSKSKGVAKKSYHMSGQAIDFRLDGVSLKKIREAAISLQAGGVGYYPKSQFIHIDTGPVRQWVGA,not soluble
5,VDKRESYTKEDLLASGRGELFGAKGPQLPAPNMLMMDRVVKMTETGGNFDKGYVEAELDINPDLWFFGCHFIGDPVMPGCLGLDAMWQLVGFYLGWLGGEGKGRALGVGEVKFTGQVLPTAKKVTYRIHFKRIVNRRLIMGLADGEVLVDGRLIYTASDLKVGLFQDTSAF,soluble
6,MGSDKIHHHHHHMTAPTAQSMQAQPIHARLMNGEVLSQDDATAFMREVMSGDMSGVRMAAALAALRVRGETPEEIAGFAQAMRESAVTVKVRPRDVLMDVVGTGGDGAHTFNISTTTAFVLAGAGVPIAKHGNRAASSRAGSADVLEALGVNLDASPEVIQEAIDTLGVGFMFARNYHPALRHAAPVRSDLAARTVFNILGPLSNPAGATHLVVGVFRADLTRTLAEALRHLGAKGATVVYGDGLDEFTVCGPNTVSGLRDGEIIDRTMHPEEFGVDLHPKTAIVGGSPAENAEITHALLTGGGTPAQKDIVALNAGAALRTAGRVGTIREGVEQAREVMKGGQGWEMLQKYGALTKR,not soluble
7,MGSDKIHHHHHHVVLAVVVGRRTASLALRGRGGRSKGGIHLPQNRIRFGSVGCRDLRSQLRRLIEDETMSEPAEAFYLPLGDNRYEPTRATESPWDSQAQHGGPPTALLGHLLDTAAGPDKRLARITADFLGAIPRRPFRVDTVEIRPGRRIALLEARMVFDDRPAVVARAWAIETGPTPPATGEQLHPPALADADPALDLTGWGYGEAIEWRYTRGGYGTADSAADVWTRVRIPLIAGEKLTGLARTLVVADSANGVSAALPMEHWLFIPPSITVTLARFPDTEWVHMACRSHLSPDGLGVSHATLSDTDGYLGEVSQPLLVRPR,not soluble
8,DGDQCETSPCQNQGKCKDGLGEYTCTCLEGFEGKNCELFTRKLCSLDNGDCDQFCHEEQNSVVCSCARGYTLADNGKACIPTGPYPCGKQTLERRKRSVAQATSSSGEAPDSITWKPYDAADLDPTENPFDLLDFNQTQPERGDNNLTR,soluble
9,MSLALPDFEFSFATRDEFDRKPVAKKLINILNSNIDISPMVIDGSWGTGKTEFCRKTIKLINDEFNETLICAYIDAFEADHTNDPLIPIVAAISELIEDSSKKIAFLNKAKAIFRYGLKASARASVAWLLRSNTETLDQEFQKELEKAVDEGSQNLVDGVITDYQEAKKDINSLKLILQDLTVEKKLVIFIDELDRCKPDFAIAIIEKIKHVFDVANVKFILVTNYTQMKASVNHCYGLALDAHRYLDKFIKFKFYLPTDKYSNKRKQHVSYHYADQLIRNSDILKAHSRYYLDSRFDLLNNLIIINELSLREISNFILYLELFHTLKSDQFAPDKWYHLSIFIIFILYFKPELREKIRKKDILASELCKFLGINSHIKAKELTHDKDGVSRDIATLIMIFLNDNSIPGYQSDDEEDFKGWLSKLALSTNVGYLELITYIEQFINDIFNEFQFVTKAAALEHHHHHH,soluble
10,MSIRLAQVTDIPVLKELLNQIFQVHQTVRPDLFKNTDKGSKYSETELKELLQDESKPIFVYTDGKNRVLGHLFLVIKETKGSSVSKPLKTLFIDDLCVSKEARGQKIGQELFEFALKYAKKLGCYDLTLNVWNDNKGALAFYERQGLKARETKMEKILLEHHHHHH,soluble
11,MAFSIPPLPWGYDGLAAKGISKEQVTFHYDKHHMGYVTKLNAAANSNPALAAKSVEEIIRTEKGPIFNLAAQIFNHNFYWESMSPNGGGEPSGKLAEAIRASFGSFAKFKEEFTNAAVGHFGSGWAWLVQDTTTKKLKVFQTHDAGCPLTEADLKPILTCDVWEHAYYIDYKNDRPAYVQTFWNVVNWDHAENQFTR,soluble
12,MGSDKIHHHHHHMSEKTLYQKLQNIHKKVPYIQKSQQASQYSYAGSSDVLGTIHGLMDEEKLILIPQITNKNTETSQNRKGSTVIFTELMMTMTWVNSDNPDEKLECQWYAQGIDTAGEKGVGKALTYGEKYFLLKFFNVATDDLDPDAFQENVKAQKAPELINDEQKKTLKELFNSMASVTKTPIEKVSKAYLKKVNSDSIEKLQEDTAIGLIELVTNQLNKQTEKAGK,not soluble
13,MGSDKIHHHHHHMNFEVLVKHISTIQNTLQAQAAHAVNLALTSRNWLMGCYIVEFEQNGEDRAAYGEQLLKKLEQRLKTKGLNERRFREFRRLYLVYPQLKESVTQYIASQIQIRQSLTAEFTEPIRRLVTAESENGVWKLSTEHPQTETWMIPADRLFNRLSSTHLNTISGIENPIKRAFYEMETIRGCWSVKELERQIASLYYERSGLSKNKEALSALVQQQVTLLQPKDVINTPVTLEFLGLNERALVTENDLEQSILDNLQHFLLEMGHGFCFEARQKRILIDEDYFFADLVFYHRILKCHIIVELKIDKFRHEYASQLNMYLNYFKAEVMQPDDNPPIGILLCTEKGDTLVKYATAGLDPNIFVQKYMIELPSEEEIKRFILGVNF,not soluble
14,MSLKKYQLVIVGYGGMGSYHVTLASAADNLEVHGVFDILAEKREAAAQKGLKIYESYEAVLADEKVDAVLIATPNDSHKELAISALEAGKHVVCEKPVTMTSEDLLAIMDVAKRVNKHFMVHQNRRWDEDFLIIKEMFEQKTIGEMFHLESRVHGANGIPGDWRHLKAHGGGMVLDWGVHLLDQLLFLVDSNVKSVSANLSFALGDEVDDGFVTFITFENGITAQIEVGTTNFIKLPRWYVKGTEGTGIIHDWDLSGEIVKPTALAKTSEPTPIKAGQGLTKTMAPPSEEATNTLSLPAPAKLAPSFYNNFVDVLNNTSEPIVQNEEVYQVLKLIEAIFEAAETNRTVHSIEGHHHHHH,soluble
15,GMGLALCGAAAQAQEKPNFLIIQCDHLTQRVVGAYGQTQGCTLPIDEVASRGVIFSNAYVGCPLSQPSRAALWSGMMPHQTNVRSNSSEPVNTRLPENVPTLGSLFSESGYEAVHFGKTHDMGSLRGFKHKEPVAKPFTDPEFPVNNDSFLDVGTCEDAVAYLSNPPKEPFICIADFQNPHNICGFIGENAGVHTDRPISGPLPELPDNFDVEDWSNIPTPVQYICCSHRRMTQAAHWNEENYRHYIAAFQHYTKMVSKQVDSVLKALYSTPAGRNTIVVIMADHGDGMASHRMVTKHISFYDEMTNVPFIFAGPGIKQQKKPVDHLLTQPTLDLLPTLCDLAGIAVPAEKAGISLAPTLRGEKQKKSHPYVVSEWHSEYEYVTTPGRMVRGPRYKYTHYLEGNGEELYDMKKDPGERKNLAKDPKYSKILAEHRALLDDYITRSKDDYRSLKVDADPRCRNHTPGYPSHEGPGAREILKRK,soluble
16,MAGGPPKALPSTGPQSLRDMPHPLAGSSSEEAVGGDSTPSPDLLMARSFGDKDLILPNGGTPAGTASPASSSSLLNRLQLDDDIDGEARDLFVTVDDPKKHVCTMETYITYRITTKSTRVEFDLPEYSVRRRYQDFDWLRNKLEESQPTHLIPPLPEKFVVKGVVDRFSEEFVETRRKALDKFLKRITDHPVLSFNEHFNVFLTAKDLNAYKKQGIALLSRVGESVKHVTGGYKLRSRPLEFAAISDYLDTFALKLGTIDRIAQRIIKEEIEYLVELREYGPVYSTWSALEGELAEPLEGVSACIGNCSTALEELTDDITEEFLPVLREYVLYSDSMKGVLKKRDQVQAEYEAKLEAVALRKEERPKVPADVEKCQDRMECFNADLKADMERWQSNKRHDFRQLLVGLADKNIQYYEKCLMAWESIIPLLQEKQETK,soluble
17,MGSDKIHHHHHHMKKTYLFSPGPVMVTDKVRNSLLHYDICHRGNEFMNLFKDTQQKINKLYNATSNYYSLIVSGSGTSVNECVLSSIFDKEDAVLLVSNGVFGERLEEILSTYNVKTYKPNFEWAEYPDLDILEKYIIENSDIKVIAMVFHETSSGMINPVPELGKLAKKYNKIFFVDAISASAGEYIDVEEFNIDIITGVGGKALGAFPGSAYLCAKESILQNIKENQCKNVYLNLYKHYKVAKSSSQTPNTPNVTLIFALNEALTEFLEDDSKIERYKECSAILRNGMEELGLTFLLPDKYMSNTVTSVFLPKEINVNEFILGLERESGYVVYPGKGKFLDANIFQVANMGEIYPEDCYKFLDILKSKLEIKKVI,not soluble
18,MPSIRLADLAQQLDAELHGDGDIVITGVASMQSAQTGHITFMVNPKYREHLGLCQASAVVMTQDDLPFAKSAALVVKNPYLTYARMAQILDTTPQPAQNIAPSAVIDATAKLGNNVSIGANAVIESGVELGDNVIIGAGCFVGKNSKIGAGSRLWANVTIYHEIQIGQNCLIQSGTVVGADGFGYANDRGNWVKIPQIGRVIIGDRVEIGACTTIDRGALDDTIIGNGVIIDNQCQIAHNVVIGDNTAVAGGVIMAGSLKIGRYCMIGGASVINGHMEICDKVTVTGMGMVMRPITEPGVYSSGIPLQPNKVWRKTAALVMNIDDMSKRLKSLERKVNQQD,soluble
